According to PMC10104862:

Target: Flag-TRF2 (Telomeric repeat-binding factor 2), wild type (not stated (human or mouse cDNA cloned)) (UniProt Q15554)
Assay: co-IP; 293T or U2OS cells co-transfected with epitope-tagged cDNAs, lysed 48 h later in BCO 300 buffer (20 mM HEPES pH 7.5, 10% glycerol, 1 mM EDTA, 0.1% NP-40); Flag M2 affinity gel; SDS-PAGE and blot

Sequence of UniProt Q15554 (Q15554 whole entry): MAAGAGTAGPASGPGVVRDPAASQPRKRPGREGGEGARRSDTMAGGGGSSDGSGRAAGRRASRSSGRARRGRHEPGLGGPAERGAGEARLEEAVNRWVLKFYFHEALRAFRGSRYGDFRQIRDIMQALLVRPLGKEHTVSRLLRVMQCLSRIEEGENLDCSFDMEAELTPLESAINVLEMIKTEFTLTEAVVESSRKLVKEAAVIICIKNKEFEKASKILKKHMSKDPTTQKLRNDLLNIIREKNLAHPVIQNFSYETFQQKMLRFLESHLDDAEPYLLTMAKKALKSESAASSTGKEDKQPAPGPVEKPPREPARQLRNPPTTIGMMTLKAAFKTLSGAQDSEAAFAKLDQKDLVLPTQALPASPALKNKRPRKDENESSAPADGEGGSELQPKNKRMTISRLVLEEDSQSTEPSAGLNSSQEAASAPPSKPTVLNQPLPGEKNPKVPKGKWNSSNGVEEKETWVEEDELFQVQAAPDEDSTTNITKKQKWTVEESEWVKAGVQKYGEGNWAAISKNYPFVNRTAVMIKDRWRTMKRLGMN

fold binding relative to TRF2^ΔB: 3 fold
Substance: ADAR1p110, wild type (expressed construct) (natural protein)
